Molecular target: T1, 重组肌红蛋白(自产) (UniProt P02144 2-154)
T1 construct: The ELISA names it 重组肌红蛋白 and the BLI assay names it MYO蛋白; both are treated as one molecule; also called MYO蛋白; Mb
T1 sequence (looked up): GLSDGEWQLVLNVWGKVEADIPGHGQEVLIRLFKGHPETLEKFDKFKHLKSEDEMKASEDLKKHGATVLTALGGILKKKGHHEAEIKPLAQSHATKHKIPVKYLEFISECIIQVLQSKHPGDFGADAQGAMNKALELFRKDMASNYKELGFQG
Assay: BLI, antibody captured on AMC sensors, MYO protein in serial dilution

B1: 实施例1的肌红蛋白单克隆抗体(WT) (antibody, mouse IgG1, kappa, V domains shown)
VH: QIQLVQSGPELKKPGETVKISCKASGYTYTEFSVHWVKQAPGKGLKWMGWINSETSEPTYGDDFKGRFAFSLETSASAAYLQINNLKNEDSATYFCARRAYYLFGPFTYWGQGTLVTVSA
VL: DIVLTQSPASLAVSLGQRATISCRASKSVDFNGDSYMNWHQQKPGQPPKLLIYAASQRESGIPARFSGSGSGTDFTLNIHPVEEEDAATYYCQHSNEEPYTFGGGTKLEIKR
notes: Recombinant antibody cloned from hybridoma 5G9 and expressed in CHO cells; Detected with goat anti-mouse IgG-HRP; also called WT抗体; 5G9 recombinant antibody
Kd: 4.56 nM | koff: 0.000118 s⁻¹ | kon: 25900 M⁻¹ s⁻¹
